In the supplement of paper PMC12042874:
± gives the uncertainty stated by the source.

experiment: amyloid nucleation score (Sup35N fusion, yeast selection) (log enrichment); library NNK2; higher = more nucleation; inactive = no reads after selection
Method in brief: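 Nucleation score: DiMSum log enrichment of output over input reads, centred on the mode score of non-aggregating sequences. Only sequences with at least 100 input reads were kept. Reads came from Illumina sequencing of plasmid inserts before and after 7 days of growth at 30°C without adenine and uracil, in psi-negative yeast expressing Sup35N fused to peptides of 20 random codons after 24 hours of induction with 100 μM copper sulfate.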

Compared with YRSSLRHFSVYSYNSFSELL, LVREWHRKNSSGPRIVVRRQ is higher in amyloid nucleation score: 0.626 ± 0.65 for the first, 4.18 ± 0.079 for the second.

First: VIFIINELYGCIASNERVCA
Second: MRHRCGHKKVSGV
The amyloid nucleation score of the first is higher: 6.281 ± 0.049 for the first, 1.27 ± 0.49 for the second.

SLWVYLVKMVEIFSLKD and CSRIHIV are within error of each other in amyloid nucleation score: -0.531 ± 0.55 for the first, -0.255 ± 1.1 for the second.

Going from MAILVGSFDVDSNCVDSWGV to YYLPLGYDWPWSYSKCSNTR, the amyloid nucleation score rises from 0.027 ± 0.74 to 4.04 ± 0.072.

Compared with RFLEALTVRHCSPL, RDPVFIT is lower in amyloid nucleation score: 4.71 ± 0.06 for the first, -1.44 ± 0.76 for the second.

First: ERDSSALRMAYSICHGNSVV
Second: WLGTRWRRGWGRLLKREGIL
The amyloid nucleation score of the first is lower: 0.232 ± 0.56 for the first, 1.79 ± 0.13 for the second.

LFTGRNRTSTHSSDISSRN and VLSNYGNYISDWQLQLRLT are within error of each other in amyloid nucleation score: 0.531 ± 0.66 for the first, -0.149 ± 0.32 for the second.

First: NSFVCMLPGVFVKCRCSNAD
Second: LYVSFDYGAQRVHYSTAYVK
The amyloid nucleation score of the first is higher: 4.832 ± 0.044 for the first, -0.013 ± 0.48 for the second.

First: GTMCFFMCTDYLYGSQTRLG
Second: RGVGYYRGSICTWFNWAAMW
The amyloid nucleation score of the first is lower: -0.054 ± 1.1 for the first, 1.83 ± 0.16 for the second.

LTFVCVV and PASNWIRYRMTFQDGPYVKR are within error of each other in amyloid nucleation score: 0.048 ± 0.33 for the first, 0.373 ± 0.66 for the second.

HYLVS and YIELMGHWVGTSRKCVSDRS are within error of each other in amyloid nucleation score: 0.326 ± 0.49 for the first, -0.243 ± 1.1 for the second.

IYALFLICLLHISVGLLMYR and GYDNTAWELTGGVD are within error of each other in amyloid nucleation score: -0.179 ± 0.63 for the first, -0.311 ± 0.3 for the second.

First: FQRFVIK
Second: YRLYDRENSAICYISYTLLL
The amyloid nucleation score of the first is lower: -2.12 ± 0.44 for the first, 2.36 ± 0.069 for the second.

SVKYFLDSVDVWIDIISAFF and INGQDKHRHWSFTLFYKKRY are within error of each other in amyloid nucleation score: 0.256 ± 0.55 for the first, -0.145 ± 1.1 for the second.

First: KLVIKLRIIYYASV
Second: KTTSISLAVEGYLVGISLIP
The amyloid nucleation score of the first is lower: 3.74 ± 0.084 for the first, 7.26 ± 0.078 for the second.

LEVRSAWGHLPFMSPEGL and CPSWFLSGDKCFYRGESSEN are within error of each other in amyloid nucleation score: -1.17 ± 0.44 for the first, -0.184 ± 0.63 for the second.

CRTLSGCYQDCGAVNGVLRV and RATRLIRGTWYKKLKRVARI are within error of each other in amyloid nucleation score: 1.22 ± 0.3 for the first, 1.32 ± 0.18 for the second.

MRYEALMHPWSWRFR and PHHWTQWSVKMSGFRSLLRR are within error of each other in amyloid nucleation score: 1.06 ± 0.12 for the first, 1.19 ± 0.13 for the second.

Compared with TLTLCTSSLDC, FRVTIMVIQNSPTVSPGLAG is higher in amyloid nucleation score: 1.1 ± 0.61 for the first, 4.31 ± 0.08 for the second.

First: LIRSFNSSYVEGRHANI
Second: EGTRIDLVKRRVNLWCI
The amyloid nucleation score of the first is higher: 2.69 ± 0.14 for the first, -0.296 ± 0.76 for the second.

First: KACWCLYQGLTLSAQVQLWP
Second: IFFVRACSKAGFVQPLSIFY
The amyloid nucleation score of the first is higher: 1.26 ± 0.26 for the first, -0.113 ± 0.65 for the second.

Compared with KIFTSCKELTVVGLVASYMN, PQSWIVHRTIVHGSLGSCFP is lower in amyloid nucleation score: 0.782 ± 0.51 for the first, -0.4 ± 0.3 for the second.

GNVITDGESMMDCKGTMRSC and RLSLNFDVRLC are within error of each other in amyloid nucleation score: 0.584 ± 0.21 for the first, 1.21 ± 0.61 for the second.

Compared with EYYFSTELGGVFTLY, YTYTQTR is lower in amyloid nucleation score: 1.18 ± 0.12 for the first, 0.25 ± 0.48 for the second.

Going from FFVTAPIGMFSLD to AFSMCSDRWIWLSCLNVEFV, the amyloid nucleation score rises from -2.17 ± 0.44 to 9.677 ± 0.048.

First: KSVRGPCSYIFKYSCY
Second: WKIDWTNVNPFVRPVGTTNG
The amyloid nucleation score of the first is higher: 2.59 ± 0.22 for the first, 0.917 ± 0.33 for the second.

Going from VFWITAQMYY to NDKSFSMLATE, the amyloid nucleation score falls from 2.18 ± 0.076 to 0.707 ± 0.46.

YLGTF and MHCYSIGFRLMRSANMLSCY are within error of each other in amyloid nucleation score: 0.187 ± 0.56 for the first, 0.394 ± 0.33 for the second.

WFNFVPYHADYGNFL and DQYYNH are within error of each other in amyloid nucleation score: 0.053 ± 1.1 for the first, 0.29 ± 0.77 for the second.

Compared with ANPQSKLLNVSFIGTVQGWV, DCLLSFVRVRSSPSVRY is higher in amyloid nucleation score: 3.04 ± 0.12 for the first, 4.47 ± 0.056 for the second.

SILGVCSRLSYVRSVTFQGV and VTVSVGSLYTNFATPKDRMV are within error of each other in amyloid nucleation score: 0.998 ± 0.61 for the first, 0.357 ± 0.36 for the second.

Compared with YFMTKETLHC, YAFKRECWCHYHHHCVQMFW is higher in amyloid nucleation score: -1.64 ± 0.54 for the first, 0.49 ± 0.33 for the second.

First: FINWHGMHSL
Second: FVINSCENVARTHRVCQLAM
The amyloid nucleation score of the first is higher: 0.89 ± 0.16 for the first, -0.115 ± 0.37 for the second.

RVRSGKKHDW and LIRFTLMSTFEITIMSFRCV are within error of each other in amyloid nucleation score: 1.01 ± 0.14 for the first, 0.934 ± 0.2 for the second.

First: EREVCMFRLYAKRGPAVDWL
Second: WFGFGESAHLYRLREEDFHD
The amyloid nucleation score of the first is higher: 2.19 ± 0.21 for the first, -0.206 ± 0.79 for the second.

CRASG and SDPKLFCAIKAGNTQLGVES are within error of each other in amyloid nucleation score: 0.409 ± 0.25 for the first, 0.634 ± 0.54 for the second.

LVVLD and GVMYSLFRNSSWGGHIMSGK are within error of each other in amyloid nucleation score: -0.262 ± 0.79 for the first, 0.818 ± 0.67 for the second.

ACLFWIYARRHRLAWVVFIW and ICFNTSLVPECKHSRSEFDS are within error of each other in amyloid nucleation score: -0.487 ± 1.1 for the first, 0.643 ± 0.64 for the second.

Compared with REFLIYFCFQIMCCRTYGPA, DKYITCVESWWPSILGGEKP is lower in amyloid nucleation score: 5.125 ± 0.046 for the first, 1.87 ± 0.23 for the second.

Going from WLLPTTSLLSSQPAQAFRDH to ISPISEQHMLSLTSYEP, the amyloid nucleation score rises from -0.363 ± 0.49 to 1.74 ± 0.35.

First: WSHVYSV
Second: CHCWSELIQIFII
The amyloid nucleation score of the first is lower: -0.124 ± 0.76 for the first, 5.86 ± 0.061 for the second.

First: NLGCWLVGWLNCGFRWDDDR
Second: IAIKM
The amyloid nucleation score of the first is higher: 5.639 ± 0.038 for the first, 3.25 ± 0.08 for the second.

Going from CAPDVQWFSKIAFE to LLFRRMEKSRLSLERV, the amyloid nucleation score falls from 1.1 ± 0.53 to -0.257 ± 0.45.

Going from VIIINIVFKSGMGQLLGHRR to FGADNGSPRSE, the amyloid nucleation score falls from 6.53 ± 0.074 to -0.354 ± 0.76.

LNSMF and HCYSRPFESSSFMNSVSLKY are within error of each other in amyloid nucleation score: 0.056 ± 0.31 for the first, -0.149 ± 0.76 for the second.

TSVLA and NKWSPEGNSACRDSVCTHIY are within error of each other in amyloid nucleation score: -1 ± 1.1 for the first, -0.807 ± 0.76 for the second.

Compared with THDPNLRCYFVIGTELHSRT, HCKLVFRGVMTESHSSACGG is higher in amyloid nucleation score: 0.126 ± 0.8 for the first, 2.82 ± 0.071 for the second.

VYEGSLCLAYERLTGMGFIK and CNKESFSMI are within error of each other in amyloid nucleation score: -0.382 ± 0.29 for the first, -0.791 ± 0.55 for the second.

First: YYIQHHSF
Second: RKSYPRIYVHPSWKCVGDRY
The amyloid nucleation score of the first is higher: 3.37 ± 0.082 for the first, 0.066 ± 0.41 for the second.

FEGNGCSILWLSFCRWAQ and SRFIAWSFT are within error of each other in amyloid nucleation score: 0.98 ± 0.4 for the first, -0.038 ± 1.1 for the second.

Compared with SIRSLMGVRSKNSYCRLTVR, SQCARKYVVASVSMLTDVTH is higher in amyloid nucleation score: 0.011 ± 0.79 for the first, 1.13 ± 0.31 for the second.

ELLIHDEYDILMCN and GIKFCEPCDGGHGDGIWPLT are within error of each other in amyloid nucleation score: 0.136 ± 0.36 for the first, 0.708 ± 0.29 for the second.

Compared with SLCEFMREGCLLTYWFNKCE, YFIAASYCDLTYLKTIDWTG is higher in amyloid nucleation score: -0.838 ± 0.64 for the first, 2.76 ± 0.067 for the second.

QCWGMERSERSIRFVTRFFR and FGGIFCFSLYR are within error of each other in amyloid nucleation score: 3.5 ± 0.1 for the first, 3.52 ± 0.071 for the second.

KLWETRACFVTCR and DFMSSVFCQAVWVHAPRRVR are within error of each other in amyloid nucleation score: 0.362 ± 0.4 for the first, 0.6 ± 0.74 for the second.

Compared with ANKSAGVLYNAASDLRVGVR, RLILY is lower in amyloid nucleation score: 0.923 ± 0.55 for the first, -0.775 ± 0.43 for the second.

VPLCDVYWA showed an amyloid nucleation score of -0.902 ± 0.61.

For GLRRRMCCRRCWLEGVDFQD, the amyloid nucleation score was “inactive”.
For LVRPILLYYSMLV, the amyloid nucleation score was “inactive”.
In the case of PNSLYGYKIAFSLDFFVRVY, the amyloid nucleation score is reported as “inactive”.
With RNSSYIDFIGRWH the amyloid nucleation score was “inactive”.
In the case of NRSTRGWGVVSTLCYRLSSF, the amyloid nucleation score is reported as “inactive”.
In the case of CGRRILSRWVITLLVPGGSF, the amyloid nucleation score is reported as “inactive”.
With DNLNRAKFDLELVESGFWVV the amyloid nucleation score was “inactive”.
For TLDFCEL, the amyloid nucleation score was “inactive”.
In the case of GNFDWAFHYGVFVHLCHKMG, the amyloid nucleation score is reported as “inactive”.
For KLTLLKTL, the amyloid nucleation score was “inactive”.
In the case of IMSSV, the amyloid nucleation score is reported as “inactive”.
With NYKNVVSFLVR the amyloid nucleation score was “inactive”.
For FKRPDSKIVCDVNVKGALKE, the amyloid nucleation score was “inactive”.
In the case of SSFFLTQSKSFGYA, the amyloid nucleation score is reported as “inactive”.
For VCHHSSI, the amyloid nucleation score was “inactive”.
